This assay addresses gp130 extracellular domain (UniProt P40189). The assay can be described thus: SPR; gp130 extracellular domain amine-coupled on CM5; fixed excess of IL-6 and differing concentrations of gp80 (0–250 nM) with or without VHH6; 100 μl/min; 1:1 binding model; 25 °C, HBS-P+; BIAcore T200. On the technique in general: In SPR one partner is held on a chip, and binding of the other changes the refractive index at the surface.

gp130 extracellular domain, sequence (P40189 23-619): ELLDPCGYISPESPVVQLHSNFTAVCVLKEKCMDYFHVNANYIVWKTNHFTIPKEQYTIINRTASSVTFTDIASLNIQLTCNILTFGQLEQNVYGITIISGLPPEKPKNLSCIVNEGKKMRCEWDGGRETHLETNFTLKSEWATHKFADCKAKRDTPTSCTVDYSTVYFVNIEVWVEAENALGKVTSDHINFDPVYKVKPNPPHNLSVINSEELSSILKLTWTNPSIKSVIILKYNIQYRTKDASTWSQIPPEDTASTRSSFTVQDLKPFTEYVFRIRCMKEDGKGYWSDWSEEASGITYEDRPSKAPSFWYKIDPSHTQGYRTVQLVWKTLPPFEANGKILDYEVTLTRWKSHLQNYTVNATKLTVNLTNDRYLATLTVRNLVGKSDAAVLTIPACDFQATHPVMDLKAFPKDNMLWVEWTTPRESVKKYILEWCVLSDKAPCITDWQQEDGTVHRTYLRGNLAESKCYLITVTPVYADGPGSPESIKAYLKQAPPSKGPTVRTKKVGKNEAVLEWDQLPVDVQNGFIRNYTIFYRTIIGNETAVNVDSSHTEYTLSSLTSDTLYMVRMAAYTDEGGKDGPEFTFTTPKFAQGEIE
IL-6–gp80 complex (IL-6 with gp80V4), sequence (P05231 49-212): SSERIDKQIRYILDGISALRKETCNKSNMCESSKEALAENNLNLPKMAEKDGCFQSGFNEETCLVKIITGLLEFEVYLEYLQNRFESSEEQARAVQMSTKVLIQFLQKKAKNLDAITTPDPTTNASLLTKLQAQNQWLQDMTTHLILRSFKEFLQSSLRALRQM
IL-6–gp80 complex (IL-6 with gp80V4), sequence (P08887 111-322): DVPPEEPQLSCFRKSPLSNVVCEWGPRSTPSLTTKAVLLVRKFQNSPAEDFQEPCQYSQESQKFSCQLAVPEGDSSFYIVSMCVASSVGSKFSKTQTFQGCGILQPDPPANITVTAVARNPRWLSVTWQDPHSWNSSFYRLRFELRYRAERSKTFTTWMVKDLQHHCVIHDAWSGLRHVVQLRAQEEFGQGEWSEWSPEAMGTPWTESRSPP

As a reminder, the koff is the rate constant with which the complex falls apart. In general, kon refers to the second-order rate constant of association. High values mean fast association, low ones slow association. Regarding “IL-6–gp80 complex (IL-6 with gp80V4) (from UniProt P05231 49-212; P08887 111-322)”, the dissociation rate constant (koff) worked out at 0.037 s⁻¹ and the kon came out at 360000 M⁻¹ s⁻¹.
